# IntAct's records for PubMed 17875641
# B1: tRNA-specific adenosine deaminase subunit tad3 (Schizosaccharomyces pombe (strain ATCC 38366 / 972)), Q9P7N4 (parent)
# chain: MVKTNISKNSPKEATVPELDWPFKLIKSHLETRKLETENVWIACFEPKYASKVTQYVKQIRSKQKESLLHCNRLRRIQDENGSLELQIIICPEKSMTANEIGKDFEDLGIVSKMIFLYAVPAFPPLTDEQFHEWNSVWPVSYRKHVQRQDVFTVHELKRIESILEDLINAAGASHKHGEIGCAAAIYDPTTDTVLAVSVDERSKLKNPINHCVMNAINLVAKRELSRRQNRTDGSKDRYLCKDLTVVMTHEPCVMCSMGLLHSRIRRLIYCKKQPLTGGIESLYGIHWRAELNHRYLAYSGWNKPVPSIKENIHV
# partner: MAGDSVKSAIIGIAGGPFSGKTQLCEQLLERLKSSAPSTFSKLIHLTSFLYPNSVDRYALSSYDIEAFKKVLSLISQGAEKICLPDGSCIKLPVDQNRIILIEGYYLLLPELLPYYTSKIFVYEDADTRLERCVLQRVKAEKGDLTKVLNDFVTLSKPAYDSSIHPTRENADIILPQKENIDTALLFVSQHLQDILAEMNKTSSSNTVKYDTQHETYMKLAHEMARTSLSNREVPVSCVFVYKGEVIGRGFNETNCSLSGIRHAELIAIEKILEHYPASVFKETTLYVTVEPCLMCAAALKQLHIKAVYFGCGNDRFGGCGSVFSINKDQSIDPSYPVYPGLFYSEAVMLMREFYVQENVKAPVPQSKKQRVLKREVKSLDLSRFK
# Variants of: B1
# Settings: with tad2_schpo tad2, O94642
row,Variant,effect of a mutation on the interaction
1,MVKTNISKNSPKEATVPELDWPFKLIKSHLETRKLETENVWIACFEPKYASKVTQYVKQIRSKQKESLLHCNRLRRIQDENGSLELQIIICPEKSMTANEIGKDFEDLGIVSKMIFLYAVPAFPPLTDEQFHEWNSVWPVSYRKHVQRQDVFTVHELKRIESILEDLINAAGASHKHGEIGCAAAIYDPTTDTVLAVSVDERSKLKNPINHCVMNAINLVAKRELSRRQNRTDGSKDRYLCKDLTVVMTHEPCVMCNMGLLHSRIRRLIYCKKQPLTGGIESLYGIHWRAELNHRYLAYSGWNKPVPSIKENIHV [S257N],decreasing interaction
